The target in assay [1] is T1, FcγRIIIa F extracellular domain with C-terminal His tag (human, UniProt P08637 17-208).
T1 construct: extracellular domain; Soluble receptor, F158 allotype; also called FcgRIIIa F; FcgRIIIaF; not shown: His tag at the C terminus
The experiment in a line: SPR (Biacore), antibody captured on chip, soluble FcγR as analyte, 1:1 Langmuir fit. As to the method:
(§1) Specifically, H240-Hl134 (SEQ ID NO: 88) resulting from introduction of L234Y/L235Y/G236W/H268D/S298A into H240-Hl033 and H240-Kn132 (SEQ ID NO: 89) resulting from introduction of K326D/A330M/K334E into H240-Kn033 were constructed according to the method described in Reference Example 1.
(§2) Analysis of interaction between objective antibody and the FcγR was carried out using Biacore T100 (GE Healthcare), Biacore T200, Biacore A100, and Biacore 4000. HBS-EP+ (GE Healthcare) was used as the running buffer, and the measurement temperature was set to 25° C. Chips produced by immobilizing the antigen peptide by the amine coupling method to a Series S sensor Chip CM5 (GE Healthcare), chips produced by allowing preliminarily biotinylated antigen peptides to interact with and immobilize onto a Series S Sensor Chip SA (certified) (GE Healthcare), chips produced by immobilizing Protein L (ACTIGEN, BioVision) to Series S Sencor Chip CM5 (GE Healthcare), or chips produced by immobilizing Protein A/G (Thermo Scientific) to Series S Sencor Chip CM5 (GE Healthcare) were used. Antibodies of interest were captured onto these chips, and allowed to interact to each FcγR diluted with running buffer. To regenerate and repeatedly use the chip, the antibodies captured onto the chip were washed off by reacting 10 mM glycine-HCl, pH 1.5.
On the technique in general: In SPR one partner is held on a chip, and binding of the other changes the refractive index at the surface.

Assay [2] concerns the target T2, FcγRIIIa V extracellular domain with C-terminal His tag (human, UniProt P08637 17-208).
T2 construct: extracellular domain; Soluble receptor, V158 allotype; also called FcgRIIIa V; FcgRIIIaV; not shown: His tag at the C terminus
The description is as above. As to the method:
as §1, §2

For the next assay, the target named is T3, FcgRIa (human, UniProt P12314 16-292).
T3 construct: extracellular domain; also called FcγRIa; FcγRI
T3 sequence (P12314 16-292): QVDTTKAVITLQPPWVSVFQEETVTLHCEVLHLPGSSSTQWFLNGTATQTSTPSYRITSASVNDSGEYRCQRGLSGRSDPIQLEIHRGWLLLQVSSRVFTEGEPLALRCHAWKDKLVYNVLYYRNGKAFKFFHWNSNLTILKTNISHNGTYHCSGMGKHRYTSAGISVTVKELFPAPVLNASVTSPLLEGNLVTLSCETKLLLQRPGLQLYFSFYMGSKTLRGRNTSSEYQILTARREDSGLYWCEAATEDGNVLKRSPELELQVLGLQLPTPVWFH
The experiment in a line: SPR (Biacore), antibody captured, FcgR as analyte. As to the method: (§3) H240-Kn113 (SEQ ID NO: 92) resulting from introduction of Y234E and Y235N into H240-Kn072, H240-Kn115 (SEQ ID NO: 93) resulting from introduction of S239M into H240-Kn072, and H240-Kn125 (SEQ ID NO: 94) resulting from introduction of Y235Q and S239M into H240-Kn072 were prepared according to the method described in Reference Example 1. H240-Kn113/H240-Hl076/L73-k0, H240-Kn115/H240-Hl076/L73-k0, and H240-Kn125/H240-Hl076/L73-k0 were prepared by combining H240-Hl076 as an H chain, L73-k0 as the L chain, and H240-Kn113, H240-Kn115, and H240-Kn125 as the other H chain according to the method described in Reference Example 1.
as §2

In a further assay the target is T4, FcgRIIa R (human, UniProt P12318 34-217).
T4 construct: extracellular domain; also called FcγRIIa R; FcγRIIa type R
T4 sequence (looked up): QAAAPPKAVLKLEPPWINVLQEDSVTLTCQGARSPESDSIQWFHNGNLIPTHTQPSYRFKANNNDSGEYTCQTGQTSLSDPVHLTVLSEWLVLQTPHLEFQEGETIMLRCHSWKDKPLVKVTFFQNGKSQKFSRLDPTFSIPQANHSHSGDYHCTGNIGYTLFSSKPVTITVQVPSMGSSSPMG
The experiment in a line: SPR (Biacore), antibody captured, FcgR as analyte. As to the method: as §3, §2

The target of a further assay is T5, FcgRIIa H (human, UniProt P12318 34-217).
T5 construct: extracellular domain; also called FcγRIIa H; FcγRIIa type H
T5 sequence (looked up): T4 sequence (looked up) with R134H
The experiment in a line: SPR (Biacore), antibody captured, FcgR as analyte. As to the method:
as §3, §2

The target of another assay is T6, FcgRIIb (human, UniProt P31994 43-217).
T6 construct: extracellular domain; also called FcγRIIb; CD32B
T6 sequence (looked up): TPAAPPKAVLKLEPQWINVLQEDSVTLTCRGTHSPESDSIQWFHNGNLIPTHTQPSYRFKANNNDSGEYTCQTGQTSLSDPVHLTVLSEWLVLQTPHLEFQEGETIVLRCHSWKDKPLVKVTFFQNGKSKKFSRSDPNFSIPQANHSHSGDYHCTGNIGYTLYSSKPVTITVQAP
The experiment in a line: SPR (Biacore), antibody captured, FcgR as analyte. As to the method:
as §3, §2

In the next assay the target is T7, FcgRIIIa F (human, UniProt P08637 17-208).
T7 construct: extracellular domain; polymorphic site made after J. Clin. Invest; also called FcγRIIIa F
T7 sequence (P08637 17-208): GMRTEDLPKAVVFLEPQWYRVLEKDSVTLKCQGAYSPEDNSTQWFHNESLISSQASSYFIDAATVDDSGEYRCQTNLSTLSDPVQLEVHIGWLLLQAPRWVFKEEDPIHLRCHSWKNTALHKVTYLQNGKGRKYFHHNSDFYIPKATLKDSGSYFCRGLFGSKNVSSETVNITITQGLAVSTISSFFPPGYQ
Nature of the assay: SPR (Biacore), antibody captured, FcgR as analyte. As to the method: as §3, §2

Another assay addresses T8, FcgRIIIa V (human, UniProt P08637 17-208).
T8 construct: extracellular domain; polymorphic site made after J. Clin. Invest; also called FcγRIIIa V
Nature of the assay: SPR (Biacore), antibody captured, FcgR as analyte. As to the method:
as §3, §2

For a further assay, the target named is T9, FcγRIIIa (human, UniProt P08637 17-208).
T9 construct: extracellular domain; also called FcgRIIIa; CD16A; not shown: His tag attached to the C terminus
T9 sequence (P08637 17-208): as above
Nature of the assay: ratio of SPR KDs: KD of GpH7-TA22/GpH7-B78/GpL16-k0 divided by KD of this antibody. An excerpt: Then, GpH7-TA54 (SEQ ID NO: 46) resulting from the introduction of Y296W into GpH7-TA22 was constructed, and expressed and prepared in combination with GpH7-B78 according to the method described in Reference Example 1. Furthermore, GpH7-TA58 (SEQ ID NO: 45) resulting from the introduction of Y296W into GpH7-B78 was constructed, and expressed and prepared in combination with GpH7-TA22 according to the method described in Reference Example 1. To assess the effect of combination with Y296W, the prepared antibodies were compared for the FcγRIIIa-binding activity according to the method described in Reference Example 2 (Table 17).
Analysis of interaction between objective antibody and the FcγR was carried out using Biacore T100 (GE Healthcare). HBS-EP+ (GE Healthcare) was used as the running buffer, and the measurement temperature was set to 25° C. Chips produced by immobilizing the antigen peptide by the amine coupling method to a Series S Sencor Chip CM5 (GE Healthcare), or alternatively, chips produced by allowing preliminarily biotinylated antigen peptides to interact with and immobilize onto a Series S Sensor Chip SA (certified) (GE Healthcare) were used. Antibodies of interest were captured onto an antigen peptide-immobilized chip, and allowed to interact to each FcγR diluted with running buffer. To regenerate and repeatedly use the chip, the antibodies captured on the chip were washed off by reacting 10 mM glycine-HCl, pH 1.5.

Residue numbers refer to the chain shown, from its start. Names and notes keep the numbering of the source.

T1 sequence (P08637 17-208): as above
T2 sequence (P08637 17-208 F176V): as the sequence (P08637 17-208) above, with F160V counted along it
T8 sequence (P08637 17-208 F176V limits assumed): as the sequence (P08637 17-208) above, with F160V counted along it

B1: H240-Kn061/H240-Hl134/L73-k0 (antibody, human IgG1, kappa)
heavy 1: QDQLVQSGAEVKKPGASVKVSCKASGFNIKDTYIQWVRQAPGQGLEWMGRIDPLRKQTKYREKFEGRVTITADTSTNTAYMELSSLRSEDTAVYYCVRSGREFDYWGQGTLVTVSSASTKGPSVFPLAPSSKSTSGGTAALGCLVKDYFPEPVTVSWNSGALTSGVHTFPAVLQSSGLYSLSSVVTVPSSSLGTQTYICNVNHKPSNTKVDKKVEPKSCDKTHTCPPCPAPEYYWGPSVFLFPPKPKDTLMISRTPEVTCVVVDVSDEDPEVKFNWYVDGVEVHNAKTKPREEQYNATYRVVSVLTVLHQDWLNGKEYKCKVSNKALPAPIEKTISKAKGQPREPQVCTLPPSRDELTKNQVSLWCLVKGFYPSDIAVEWESNGQPENNYKTTPPVLDSDGSFFLYSKLTVDKSRWQQGNVFSCSVMHEALHNHYTQKSLSLSP
heavy 2: B1 heavy 1 with C348Y, D355C, W365S, L367A, Y406V
light: DIQMTQSPSSLSASVGDRVTITCRASQDIHKYIAWYQQKPGQAPRLLIQYTSTLQPGVPSRFSGSGSGTDYTFTISSLQPEDIATYYCLQYEQLRTFGGGTKVEIKRTVAAPSVFIFPPSDEQLKSGTASVVCLLNNFYPREAKVQWKVDNALQSGNSQESVTEQDSKDSTYSLSSTLTLSKADYEKHKVYACEVTHQGLSSPVTKSFNRGEC
notes: Anti-epiregulin IgG1, knobs-into-holes; called homodimerized as both H chains carry L234Y/L235Y/G236W/H268D/S298A
As to B1, the Kd (commonly a measure of binding affinity in units of concentration) is 660 nM in assay [1] and 86 nM in assay [2].

B2: H240-Kn113/H240-Hl076/L73-k0 (antibody, human IgG1, kappa)
heavy 1: B1 heavy 1 with Y233E, Y234N, D269E
heavy 2: QDQLVQSGAEVKKPGASVKVSCKASGFNIKDTYIQWVRQAPGQGLEWMGRIDPLRKQTKYREKFEGRVTITADTSTNTAYMELSSLRSEDTAVYYCVRSGREFDYWGQGTLVTVSSASTKGPSVFPLAPSSKSTSGGTAALGCLVKDYFPEPVTVSWNSGALTSGVHTFPAVLQSSGLYSLSSVVTVPSSSLGTQTYICNVNHKPSNTKVDKKVEPKSCDKTHTCPPCPAPELLGGPSVFLFPPKPKDTLMISRTPEVTCVVVDVSHEEPEVKFNWYVDGVEVHNAKTKPREEQYNSTYRVVSVLTVLHQDWLNGKEYKCKVSNDALPMPIEETISKAKGQPREPQVYTLPPSRCELTKNQVSLSCAVKGFYPSDIAVEWESNGQPENNYKTTPPVLDSDGSFFLVSKLTVDKSRWQQGNVFSCSVMHEALHNHYTQKSLSLSP
light: B1 light
notes: H240-Kn113: Y234E and Y235N introduced into H240-Kn072
Take B2: the equilibrium dissociation constant (Kd) with FcgRIa was found to be 0.21 nM; in the assay with FcgRIIa R, 600 nM; in the assay with FcgRIIa H, 350 nM; with FcgRIIb, 5000 nM; in the assay with FcgRIIIa F, 1.7 nM; in the assay with FcgRIIIa V it was 0.62 nM.

B3: H240-Kn115/H240-Hl076/L73-k0 (antibody, human IgG1, kappa)
heavy 1: B1 heavy 1 with S238M, D269E
heavy 2: B2 heavy 2
light: B1 light
notes: H240-Kn115: S239M introduced into H240-Kn072
As to B3, the equilibrium dissociation constant (Kd) came out at 0.27 nM with FcgRIa; 130 nM in the assay with FcgRIIa R; 62 nM with FcgRIIa H; 1300 nM with FcgRIIb; 1.4 nM in the assay with FcgRIIIa F; 0.43 nM with FcgRIIIa V.

B4: H240-Kn132/H240-Hl071/L73-k0 (antibody, human IgG1, kappa)
heavy 1: B2 heavy 2 with E269D, Y348C, C355D, S365W, A367L, V406Y
heavy 2: B2 heavy 2 with E269D
light: B1 light
notes: Anti-epiregulin IgG1, knobs-into-holes; called homodimerized as both H chains carry K326D/A330M/K334E
Take B4: the Kd in [1] is 77 nM; in assay [2] it was 16 nM.

B5: GpH7-TA22/GpH7-TA58/GpL16-k0 (antibody, human IgG1, kappa)
heavy 1: QVQLVQSGAEVKKPGASVTVSCKASGYTFTDYEMHWIRQPPGEGLEWIGAIDPKTGDTAYSESFQDRVTLTADKSTSTAYMELSSLTSEDTAVYYCTRFYSYTYWGQGTLVTVSSASTKGPSVFPLAPSSKSTSGGTAALGCLVKDYFPEPVTVSWNSGALTSGVHTFPAVLQSSGLYSLSSVVTVPSSSLGTQTYICNVNHKPSNTKVDKKVEPKSCDKTHTCPPCPAPEYLWGPDVFLFPPKPKDTLMISRTPEVTCVVVDVSHEDPEVKFNWYVDGVEVHNAKTKPREEQYNATYRVVSVLTVLHQDWLNGKEYKCKVSNKALPAPIEKTISKAKGQPREPQVYTLPPSRKELTKNQVSLTCLVKGFYPSDIAVEWESNGQPENNYKTTPPVLDSDGSFFLYSKLTVDKSRWQQGNVFSCSVMHEALHNRYTQKSLSLSP
heavy 2: B5 heavy 1 with Y232L, W234G, Y294W, A296S, A328L, I330E, K354D, R433H, K437E
light: DIVMTQSPLSLPVTPGEPASISCQASESLVHSNRNTYLHWYLQKPGQSPQLLIYKVSNRFSGVPDRFSGSGSGTDFTLKISRVEAEDVGVYYCSQNTHVPPTFGQGTKVEIERTVAAPSVFIFPPSDEQLKSGTASVVCLLNNFYPREAKVQWKVDNALQSGNSQESVTEQDSKDSTYSLSSTLTLSKADYEKHKVYACEVTHQGLSSPVTKSFNRGEC
notes: Anti-glypican-3 IgG1 heterodimer; L234Y/G236W/S239D/S298A in H1, S239D/A330L/I332E/Y296W in H2
B5: the KD ratio with FcγRIIIa was determined as 1 fold.

B6: GpH7-TA54/GpH7-B78/GpL16-k0 (antibody, human IgG1, kappa)
heavy 1: B5 heavy 1 with Y294W
heavy 2: B5 heavy 1 with Y232L, W234G, A296S, A328L, I330E, K354D, R433H, K437E
light: B5 light
notes: Anti-glypican-3 IgG1 heterodimer; L234Y/G236W/S239D/S298A/Y296W in H1, S239D/A330L/I332E in H2
Take B6: in the assay with FcγRIIIa, the KD ratio was determined as 1.3 fold.
